Laboratory results taken from patent publication US20100056439A1 (DOMANTIS, published 2010).
Residue numbers refer to the chain shown, from its start. One block for each binder: values may come before it.

Assays:
[1] = molecular target: T1, EGFR expressed on A431 cells (human, UniProt P00533 25-1210); assay: cell-based or functional assay
[2] = molecular target: T1, EGFR expressed on A431 cells; assay: EGFR cell receptor binding assay: inhibition of biotinylated EGF binding to A431 cells; IgG-like format
VEGF-165 = molecular target: T2, VEGF-165 (human, UniProt P15692-4 27-191); assay: VEGF receptor binding assay (RBA), IgG-like format; receptor (VEGFR1 or VEGFR2) not given
T2 construct: The assay text gives no species; also called vascular endothelial growth factor

[3] = molecular target: T1, EGFR expressed on A431 cells; assay: EGFR binding assay: inhibition of biotinylated EGF binding to A431 cells; lowest value obtained
Protocol: All reagents were prepared in PBS/1% BSA. The plate was incubated for 30 minutes at room temperature.

T2 sequence (P15692 other isoform, or with tags, fused parts or gaps limits assumed): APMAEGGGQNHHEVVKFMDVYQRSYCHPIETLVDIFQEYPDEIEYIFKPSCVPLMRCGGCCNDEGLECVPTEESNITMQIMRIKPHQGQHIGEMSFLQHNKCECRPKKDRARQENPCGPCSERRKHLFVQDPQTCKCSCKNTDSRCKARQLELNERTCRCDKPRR

EC50 [2]: 17 nM
IC50 (VEGF-165): 0.2 nM
B3: IgG-like format No. 30 (heavy chain V region DOM15-26-501 VH; light chain V region DOM16-39-502 VK) (bispecific antibody, V domains shown)
VH: EVQLLESGGGLVQPGGSLRLSCAASGFTFKAYPIMWVRQAPGKGLEWVSEISPSGSYTYYADSVKGRFTISRDNSKNTLYLQMNSLRAEDTAVYYCAKDPRKFDYWGQGTLVTVSS
VL: DIQMTQSPTSLSASVGDRVTITCRASQWIGNLLDWYQQKPGKAPKLLIYYASFLQSGVPSRFSGGGFGTDFTLTISSLQPEDFATYYCQQANPAPLTFGQGTKVEIKR
notes: IgG-like format; also called IgG 30; not shown: human IgG1 heavy chain constant region; human kappa light chain constant region (CK)

Kinase Assay IC50 (nM), average [1]: 12.7 nM
Kinase Assay IC50 (nM), highest value [1]: 17.6 nM
Kinase Assay IC50 (nM), lowest value [1]: 9.14 nM
IC50 [3]: 1.01 to 2.76 nM
B4: DOM16-39-100 (other)
VL: B3 VL with T9S, N31I, L33V, K42E, G65S, Q79H

Kinase Assay IC50 (nM), average [1]: 8.69 nM
IC50 [3]: 0.746 to 1.47 nM
B5: DOM16-39-109 (other)
VL: B3 VL with K42E

Kinase Assay IC50 (nM), average [1]: 42.4 nM
IC50 [3]: 1.08 to 6.89 nM
B7: DOM16-39-115 (other)
VL: B3 VL with T9S, N31I, K42E, G65S, F67Y

The next lines start with the binder.

B1: DOM16-39 (other)
VL: B3 VL with T9S, N31I, K42E, G65S, F67S
Kinase Assay IC50 (nM), average [1]: 56.1 nM

B2: IgG-like format No. 28 (heavy chain V region DOM15-26-501 VH; light chain V region DOM16-39-500 VK) (bispecific antibody, V domains shown)
VH: B3 VH
VL: B3 VL with T9S, N31I, L33V, G65S, Q79H
notes: IgG-like format; also called IgG 28; not shown: human IgG1 heavy chain constant region; human kappa light chain constant region (CK)
EC50 [2]: 43 nM
IC50 (VEGF-165): 0.8 nM

B6: DOM16-39-107 (other)
VL: B3 VL with T9S, N31I, L33V, K42E, G65S, F67S
Kinase Assay IC50 (nM), average [1]: 20.5 nM
IC50 [3]: 1.47 to 4.21 nM

B8: DOM16-39-87 (other)
VL: B3 VL with T9S, N31I, L33V, K42E, G65S, F67S, T97R
Kinase Assay IC50 (nM), average [1]: 54.9 nM
IC50 [3]: 4.47 to 10.4 nM
